Results: patent US20200377595A1

Biological target: recombinant human CD3 (human)
Experiment: SPR, Ab captured by anti-Fc, 37 C

recombinant human CD3 (human), sequence (P07766 22-126, chain 1 of 2): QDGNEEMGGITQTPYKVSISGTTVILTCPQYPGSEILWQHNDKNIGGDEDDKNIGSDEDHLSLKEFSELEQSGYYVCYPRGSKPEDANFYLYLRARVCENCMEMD
recombinant human CD3 (human), sequence (P04234 22-100, chain 2 of 2, further chain): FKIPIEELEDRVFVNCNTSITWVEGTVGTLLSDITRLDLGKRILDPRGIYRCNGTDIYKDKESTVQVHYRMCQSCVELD

Kd: 17.8 nM
koff: 0.00151 s⁻¹
kon: 85000 M⁻¹ s⁻¹
B1: GPC3/CtrlxCD3 trispecific antibody (protein, part only; not given: control arm and constant regions, not shown: another chain or arm of the molecule; a dimerising Fc or GST)
VH 1: QVQLVESGGGLVQPGRSLRLSCAASGFTFSNAWMHWVRQAPGKGLEWVAQIKDRANSYNTYYAESVKGRFTISRDDSKNSIYLQMNSLKTEDTAVYYCRYVHYTTYAGSSFSYGVDAWGQGTTVTVSS
VL 1: DIVMTQSPLSLPVTPGEPASISCRSSQPLVHSNRNTYLHWYQQKPGQAPRLLIYKVSNRFSGVPDRFSGSGSGTDFTLKISRVEAEDVGVYYCGQGTQVPYTFGQGTKLEIK
VH 2: QVQLVQSGAEVKKPGASVTVSCKASGYTFTDYEMHWIRQPPGEGLEWIGAIDGPTPDTAYSEKFKGRVTLTADKSTSTAYMELSSLTSEDTAVYYCTRFYSYTYWGQGTLVTVSS
VL 2: B1 VL 1
